Several values for one entry are separate records, joined by “and”; a condition that tells them apart may be missing. Identical values can stand only once.
Target: the molecule itself
Experiment: PFO-PAGE

B1: ORF3aΔN-eGFP (N-terminus truncated SARS-CoV-2 ORF3a with C-terminal eGFP) (domain or fragment)
chain: PFGWLIVGVALLAVFQSASKIITLKKRWQLALSKGVHFVCNLLLLFVTVYSHLLLVAAGLEAPFLYLYALVYFLQSINFVRIIMRLWLCWKCRSKNPLLYDANYFLCWHTNCYDYCIPYNSVTSSIVITSGDGTTSPISEHDYQIGGYTEKWESGVKDCVVLHSYFTSDYYQLYSTQLSTDTGVEHVTFFIYNKIVDEPEEHVQIHTIDGSSGVVNPVMEPIYDEPTTTTSVPL
stoichiometry N: 5 and 2 and 3 and 4

— paper PMC10440475 (Heliyon, 2023)
